Residue numbers refer to the chain shown, from its start. Names and notes keep the numbering of the source. Values joined by “and” are separate entries in the source; they are usually repeats but may differ in a detail not shown here. Equal values may be shown once.
B1: KB001 mouse Fab VL S32W (Fab, V domains shown)
VH: EVQLKQSGPGLVAPSQSLSITCTVSGFSLSIYSVHWVRQPPGKGLEWLGMIWGGGSSDYNSALKSRLSISKDNSKSQVFLKMNSLQTDDTAMYYCARNGNFYAMDYWGQGTSVTVSS
VL: QIVLTQSPAIMSASLGERVTMTCTASSSVSSWFLHWYQQKPGSSPQLWIYSTSNLASGVPARFSGSGSGTSYSLTISSMEAEDAATYYCHQYHHSPYIYTFGGGTKLEIK
B2: KB001 mouse Fab VL S53R (Fab, V domains shown)
VH: B1 VH
VL: B1 VL with W32S, S53R
B3: KB001 mouse Fab VL L34M (Fab, V domains shown)
VH: B1 VH
VL: B1 VL with W32S, L34M
B4: KB001 mouse Fab VL T52K (Fab, V domains shown)
VH: B1 VH
VL: B1 VL with W32S, T52K
B5: KB001 mouse Fab VL F33N (Fab, V domains shown)
VH: B1 VH
VL: B1 VL with W32S, F33N
B6: KB001 mouse Fab VL T52L (Fab, V domains shown)
VH: B1 VH
VL: B1 VL with W32S, T52L
B7: KB001 mouse Fab VL T52M (Fab, V domains shown)
VH: B1 VH
VL: B1 VL with W32S, T52M
B8: KB001 mouse Fab VL S53A (Fab, V domains shown)
VH: B1 VH
VL: B1 VL with W32S, S53A
B9: KB001 mouse Fab VL S53C (Fab, V domains shown)
VH: B1 VH
VL: B1 VL with W32S, S53C
B10: KB001 mouse Fab VL S53D (Fab, V domains shown)
VH: B1 VH
VL: B1 VL with W32S, S53D
B11: KB001 mouse Fab VL S53L (Fab, V domains shown)
VH: B1 VH
VL: B1 VL with W32S, S53L
B12: KB001 mouse Fab VL L34V (Fab, V domains shown)
VH: B1 VH
VL: B1 VL with W32S, L34V
B13: KB001 mouse Fab VL L34I (Fab, V domains shown)
VH: B1 VH
VL: B1 VL with W32S, L34I
B14: KB001 mouse Fab VL S53W (Fab, V domains shown)
VH: B1 VH
VL: B1 VL with W32S, S53W
B15: KB001 mouse Fab VL T52R (Fab, V domains shown)
VH: B1 VH
VL: B1 VL with W32S, T52R
B16: KB001 mouse Fab VL F33H (Fab, V domains shown)
VH: B1 VH
VL: B1 VL with W32S, F33H

Biological target: HRgpA-6H (Porphyromonas gingivalis) (UniProt P28784)
Chain of UniProt P28784 (P28784 228-991): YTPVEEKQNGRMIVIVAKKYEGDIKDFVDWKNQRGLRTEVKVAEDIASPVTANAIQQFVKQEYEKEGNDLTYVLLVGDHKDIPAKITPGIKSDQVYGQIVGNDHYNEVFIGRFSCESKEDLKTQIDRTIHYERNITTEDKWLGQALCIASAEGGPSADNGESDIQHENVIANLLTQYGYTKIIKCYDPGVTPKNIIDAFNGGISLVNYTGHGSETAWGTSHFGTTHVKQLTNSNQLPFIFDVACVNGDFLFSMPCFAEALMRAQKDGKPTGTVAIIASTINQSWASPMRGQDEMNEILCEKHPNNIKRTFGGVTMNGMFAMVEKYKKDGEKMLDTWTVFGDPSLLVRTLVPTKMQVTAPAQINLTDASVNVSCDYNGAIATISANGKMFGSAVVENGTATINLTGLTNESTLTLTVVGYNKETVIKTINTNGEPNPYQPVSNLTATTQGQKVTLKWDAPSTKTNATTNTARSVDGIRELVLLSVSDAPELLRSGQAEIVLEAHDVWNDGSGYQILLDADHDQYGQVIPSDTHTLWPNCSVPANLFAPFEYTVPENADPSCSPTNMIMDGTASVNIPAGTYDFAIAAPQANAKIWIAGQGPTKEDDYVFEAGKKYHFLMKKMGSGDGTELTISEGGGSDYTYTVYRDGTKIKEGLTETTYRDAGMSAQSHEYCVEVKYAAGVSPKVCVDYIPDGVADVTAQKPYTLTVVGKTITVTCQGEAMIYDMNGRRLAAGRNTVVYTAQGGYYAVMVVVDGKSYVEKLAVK
Test: ELISA, FASEBA Fab on coated HRgpA-6H

Going from B1 to B2, the OD450nm falls from 0.649 to 0.637.

First: B4
Second: B5
The OD450nm of the first is higher: 0.681 for the first, 0.64 for the second.

Compared with B6, B7 is lower in OD450nm: 0.769 for the first, 0.662 for the second.

Compared with B8, B9 is lower in OD450nm: 0.784 for the first, 0.697 for the second.

First: B10
Second: B13
The OD450nm of the first is higher: 0.775 for the first, 0.67 for the second.

First: B14
Second: B16
The OD450nm of the first is lower: 0.727 for the first, 0.736 for the second.

Compared with B1, B2 is lower in Ratio OD(Variant)/OD(WT): 0.856 for the first, 0.809 for the second.

Going from B4 to B5, the Ratio OD(Variant)/OD(WT) falls from 0.865 to 0.844.

Going from B6 to B7, the Ratio OD(Variant)/OD(WT) falls from 0.977 to 0.841.

Going from B8 to B9, the Ratio OD(Variant)/OD(WT) falls from 0.996 to 0.885.

Compared with B10, B13 is lower in Ratio OD(Variant)/OD(WT): 0.984 for the first, 0.884 for the second.

First: B14
Second: B16
The Ratio OD(Variant)/OD(WT) of the first is lower: 0.923 for the first, 0.971 for the second.

For B3, the OD450nm was 0.736 and 0.741 and 0.714.
With B11 the OD450nm was 0.639 and 0.636.
In the case of B12, the OD450nm is reported as 0.641 and 0.634.
In the case of B15, the OD450nm is reported as 0.724 and 0.681 and 0.685.

For B3, the Ratio OD(Variant)/OD(WT) was 0.971 and 0.978 and 0.911.
In the case of B11, the Ratio OD(Variant)/OD(WT) is reported as 0.811 and 0.808.
In the case of B12, the Ratio OD(Variant)/OD(WT) is reported as 0.846 and 0.836.
In the case of B15, the Ratio OD(Variant)/OD(WT) is reported as 0.919 and 0.865 and 0.87.

— patent publication US20230365662A1
